# Measurements: patent US20170016905A1 (VAR2 PHARMACEUTICALS, published 2017)
# Biological target: T1, CSPG (bovine) (D8428, Sigma) (bovine, UniProt P21793 31-360, carries chondroitin sulfate A (CSA) glycosaminoglycan chain(s); the filing attributes the binding of VAR2CSA to this glycan)
# T1 construct: also called chondroitin sulfate proteoglycan; CSA proteoglycan
# Assay: quartz crystal microbalance (Attana A100), CSPG coated, 1:1 fit
# T1 sequence (P21793 31-360): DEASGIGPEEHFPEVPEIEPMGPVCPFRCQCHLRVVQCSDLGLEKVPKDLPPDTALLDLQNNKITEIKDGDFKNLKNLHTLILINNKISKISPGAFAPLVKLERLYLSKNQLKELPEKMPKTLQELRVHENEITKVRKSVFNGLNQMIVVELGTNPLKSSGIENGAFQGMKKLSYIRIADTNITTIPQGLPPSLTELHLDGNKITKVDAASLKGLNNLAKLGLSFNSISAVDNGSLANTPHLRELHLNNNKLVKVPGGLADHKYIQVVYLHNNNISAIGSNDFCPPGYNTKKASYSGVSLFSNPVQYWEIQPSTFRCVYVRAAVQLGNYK
row,Binder,Kd [nM]
1,"DBL1-ID2a (3D7, Baculo) (other, also called DBL1X-ID2a; not shown: V5 and His tag at the C-terminal (modified pAcGP67-A)) HSDSGTNDPCDRIPPPYGDNDQWKCAIILSKVSEKPENVFVPPRRQRMCINNLEKLNVDKIRDKHAFLADVLLTARNEGERIVQNHPDTNSSNVCNALERSFADIADIIRGTDLWKGTNSNLEQNLKQMFAKIRENDKVLQDKYPKDQNYRKLREDWWNANRQKVWEVITCGARSNDLLIKRGWRTSGKSNGDNKLELCRKCGHYEEKVPTKLDYVPQFLRWLTEWIEDFYREKQNLIDDMERHREECTSEDHKSKEGTSYCSTCKDKCKKYCECVKKWKSEWENQKNKYTELYQQNKNETSQKNTSRYDDYVKDFFKKLEANYSSLENYIKGDPYFAEYATKLSFILNSSDANNPSEKIQKNNDEVCNCNESGIASVEQEQISDPSSNKTCITHSSIKANKKKVCKHVKLGVRENDKDLRVCVIEHTSLSGVENCCCQDFLRILQENCSDNKSGSSSNGSCNNKNQEACEKNLEKVLASLTNCYKCDKCKSEQSKKNNKNWIWKKSSGKEGGLQKEYANTIGLPPRTQSLCLVVCLDEKGKKTQELKNIRTNSELLKEWIIAAFHEGKNLKPSHEKKNDDNGKKLCKALEYSFADYGDLIKGTSIWDNEYTKDLELNLQKIFGKLFRKYIKKNNTAEQDTSYSSLDELRESWWNTNKKYIWLAMKHGAGMNSTTCCGDGSVTGSGSSCDDIPTIDLIPQYLRFLQEWVEHFCKQRQEKVKPVIENCKSCKESGGTCNGECKTECKNKCEVYKKFIEDCKGGDGTAGSSWVKRWDQIYKRYSKYIEDAKRNRKAGTKNCGPSSTTNAAENKCVQSDIDSFFKHLIDIGLTTPSSYLSIVLDDNICGADKAPWTTYTTYTTTEKCNKETDKSKLQQCNTAVVVNVPSPLGNTPHGYKYACQCKIPTNEETCDDRKEYMNQWSCGSARTMKRGYKNDNYELCKYNGVDVKPTTVRSNSSKLD",29.5
2,"ID1-ID2a (FCR3, Baculo) (other, The primers (NYIKGD ... NSSKLD) match its two ends; not shown: V5 and His tag at the C-terminal (modified pAcGP67-A)) NYIKGDPYFAEYATKLSFILNPSDANNPSGETANHNDEACNCNESGISSVGQAQTSGPSSNKTCITHSSIKTNKKKECKDVKLGVRENDKDLKICVIEDTSLSGVDNCCCQDLLGILQENCSDNKRGSSSNDSCDNKNQDECQKKLEKVFASLTNGYKCDKCKSGTSRSKKKWIWKKSSGNEEGLQEEYANTIGLPPRTQSLYLGNLPKLENVCEDVKDINFDTKEKFLAGCLIVSFHEGKNLKKRYPQNKNSGNKENLCKALEYSFADYGDLIKGTSIWDNEYTKDLELNLQNNFGKLFGKYIKKNNTAEQDTSYSSLDELRESWWNTNKKYIWTAMKHGAEMNITTCNADGSVTGSGSSCDDIPTIDLIPQYLRFLQEWVENFCEQRQAKVKDVITNCKSCKESGNKCKTECKTKCKDECEKYKKFIEACGTAGGGIGTAGSPWSKRWDQIYKRYSKHIEDAKRNRKAGTKNCGTSSTTNAAASTDENKCVQSDIDSFFKHLIDIGLTTPSSYLSNVLDDNICGADKAPWTTYTTYTTTEKCNKERDKSKSQSSDTLVVVNVPSPLGNTPYRYKYACQCKIPTNEETCDDRKEYMNQWSCGSARTMKRGYKNDNYELCKYNGVDVKPTTVRSNSSKLD",7.6
3,"ID1-ID2a (FCR3, E. coli) (other, Made in E. coli) NYIKGDPYFAEYATKLSFILNPSDANNPSGETANHNDEACNCNESGISSVGQAQTSGPSSNKTCITHSSIKTNKKKECKDVKLGVRENDKDLKICVIEDTSLSGVDNCCCQDLLGILQENCSDNKRGSSSNDSCDNKNQDECQKKLEKVFASLTNGYKCDKCKSGTSRSKKKWIWKKSSGNEEGLQEEYANTIGLPPRTQSLYLGNLPKLENVCEDVKDINFDTKEKFLAGCLIVSFHEGKNLKKRYPQNKNSGNKENLCKALEYSFADYGDLIKGTSIWDNEYTKDLELNLQNNFGKLFGKYIKKNNTAEQDTSYSSLDELRESWWNTNKKYIWTAMKHGAEMNITTCNADGSVTGSGSSCDDIPTIDLIPQYLRFLQEWVENFCEQRQAKVKDVITNCKSCKESGNKCKTECKTKCKDECEKYKKFIEACGTAGGGIGTAGSPWSKRWDQIYKRYSKHIEDAKRNRKAGTKNCGTSSTTNAAASTDENKCVQSDIDSFFKHLIDIGLTTPSSYLSNVLDDNICGADKAPWTTYTTYTTTEKCNKERDKSKSQSSDTLVVVNVPSPLGNTPYRYKYACQCKIPTNEETCDDRKEYMNQWSCGSARTMKRGYKNDNYELCKYNGVDVKPTTVRSNSSKLD",18.3
4,"DBL1-ID2a (FCR3, Baculo) (other, also called DBL1X-ID2a; wild-type protein; not shown: V5 and His tag at the C-terminal (modified pAcGP67-A)) HSDSGKYDPCEKKLPPYDDNDQWKCQQNSSDGSGKPENICVPPRRERLCTYNLENLKFDKIRDNNAFLADVLLTARNEGEKIVQNHPDTNSSNVCNALERSFADLADIIRGTDQWKGTNSNLEKNLKQMFAKIRENDKVLQDKYPKDQKYTKLREAWWNANRQKVWEVITCGARSNDLLIKRGWRTSGKSDRKKNFELCRKCGHYEKEVPTKLDYVPQFLRWLTEWIEDFYREKQNLIDDMERHREECTREDHKSKEGTSYCSTCKDKCKKYCECVKKWKTEWENQENKYKDLYEQNKNKTSQKNTSRYDDYVKDFFEKLEANYSSLENYIKGDPYFAEYATKLSFILNPSDANNPSGETANHNDEACNCNESGISSVGQAQTSGPSSNKTCITHSSIKTNKKKECKDVKLGVRENDKDLKICVIEDTSLSGVDNCCCQDLLGILQENCSDNKRGSSSNDSCDNKNQDECQKKLEKVFASLTNGYKCDKCKSGTSRSKKKWIWKKSSGNEEGLQEEYANTIGLPPRTQSLYLGNLPKLENVCEDVKDINFDTKEKFLAGCLIVSFHEGKNLKKRYPQNKNSGNKENLCKALEYSFADYGDLIKGTSIWDNEYTKDLELNLQNNFGKLFGKYIKKNNTAEQDTSYSSLDELRESWWNTNKKYIWTAMKHGAEMNITTCNADGSVTGSGSSCDDIPTIDLIPQYLRFLQEWVENFCEQRQAKVKDVITNCKSCKESGNKCKTECKTKCKDECEKYKKFIEACGTAGGGIGTAGSPWSKRWDQIYKRYSKHIEDAKRNRKAGTKNCGTSSTTNAAASTDENKCVQSDIDSFFKHLIDIGLTTPSSYLSNVLDDNICGADKAPWTTYTTYTTTEKCNKERDKSKSQSSDTLVVVNVPSPLGNTPYRYKYACQCKIPTNEETCDDRKEYMNQWSCGSARTMKRGYKNDNYELCKYNGVDVKPTTVRSNSSKLD",8
5,"DBL1-ID2a (FCR3, E. coli) (other, Made in E. coli) HSDSGKYDPCEKKLPPYDDNDQWKCQQNSSDGSGKPENICVPPRRERLCTYNLENLKFDKIRDNNAFLADVLLTARNEGEKIVQNHPDTNSSNVCNALERSFADLADIIRGTDQWKGTNSNLEKNLKQMFAKIRENDKVLQDKYPKDQKYTKLREAWWNANRQKVWEVITCGARSNDLLIKRGWRTSGKSDRKKNFELCRKCGHYEKEVPTKLDYVPQFLRWLTEWIEDFYREKQNLIDDMERHREECTREDHKSKEGTSYCSTCKDKCKKYCECVKKWKTEWENQENKYKDLYEQNKNKTSQKNTSRYDDYVKDFFEKLEANYSSLENYIKGDPYFAEYATKLSFILNPSDANNPSGETANHNDEACNCNESGISSVGQAQTSGPSSNKTCITHSSIKTNKKKECKDVKLGVRENDKDLKICVIEDTSLSGVDNCCCQDLLGILQENCSDNKRGSSSNDSCDNKNQDECQKKLEKVFASLTNGYKCDKCKSGTSRSKKKWIWKKSSGNEEGLQEEYANTIGLPPRTQSLYLGNLPKLENVCEDVKDINFDTKEKFLAGCLIVSFHEGKNLKKRYPQNKNSGNKENLCKALEYSFADYGDLIKGTSIWDNEYTKDLELNLQNNFGKLFGKYIKKNNTAEQDTSYSSLDELRESWWNTNKKYIWTAMKHGAEMNITTCNADGSVTGSGSSCDDIPTIDLIPQYLRFLQEWVENFCEQRQAKVKDVITNCKSCKESGNKCKTECKTKCKDECEKYKKFIEACGTAGGGIGTAGSPWSKRWDQIYKRYSKHIEDAKRNRKAGTKNCGTSSTTNAAASTDENKCVQSDIDSFFKHLIDIGLTTPSSYLSNVLDDNICGADKAPWTTYTTYTTTEKCNKERDKSKSQSSDTLVVVNVPSPLGNTPYRYKYACQCKIPTNEETCDDRKEYMNQWSCGSARTMKRGYKNDNYELCKYNGVDVKPTTVRSNSSKLD",3.5
